Laboratory results reported in patent publication US20050037448A1.

Legend:
[1] = target: des-64,65-proinsulin (UniProt P01308); assay: competitive RIA, PEP001-coated tubes, 125I-Tyr-C-peptide; serum E1 overloaded with 0.67 pmol/ml des-64,65-proinsulin; no AC1D4
[2] = target: des-64,65-proinsulin (UniProt P01308); assay: competitive RIA, PEP001-coated tubes, 125I-Tyr-C-peptide; serum E1 overloaded with 0.16 pmol/ml des-64,65-proinsulin; no AC1D4
[3] = target: des-31,32-proinsulin (UniProt P01308); assay: competitive RIA, PEP001-coated tubes, 125I-Tyr-C-peptide; serum E1 overloaded with 0.67 pmol/ml des-31,32-proinsulin; competitor AC1D4 20 µg/ml
[4] = target: human proinsulin (human) (UniProt P01308); assay: competitive RIA, PEP001-coated tubes, 125I-Tyr-C-peptide; serum E1 overloaded with 0.16 pmol/ml proinsulin; competitor AC1D4 20 µg/ml
[5] = target: des-64,65-proinsulin (UniProt P01308); assay: competitive RIA, PEP001-coated tubes, 125I-Tyr-C-peptide; serum E2 overloaded with 0.67 pmol/ml des-64,65-proinsulin; no AC1D4
[6] = target: des-64,65-proinsulin (UniProt P01308); assay: competitive RIA, PEP001-coated tubes, 125I-Tyr-C-peptide; serum E1 overloaded with 0.67 pmol/ml des-64,65-proinsulin; competitor AC1D4 20 µg/ml

PEP001 anti-C-peptide monoclonal antibody
Increase after overload (%) [1]: 49% | Increase after overload (%) [2]: 6% | Increase after overload (%) [3]: 12% | Increase after overload (%) [4]: 0% | Increase after overload (%) [5]: 9% | Increase after overload (%) [6]: 63%
